Measurements taken from patent US20070031956A1 (VERTEX PHARMACEUTICALS, published 2007).

Biological target: the molecule itself
Experiment: analytical ultracentrifugation (sedimentation velocity), monomer-dimer self-association
Protocol: All sedimentation velocity experiments were performed with the Beckman Coulter Optima XL-I using an An60 Ti rotor and charcoal-filled Epon double-sector cells. […] Experiments were performed at 42,000 rpm for 8 h at 20° C. Radial absorbance scans were collected in continuous scan mode at 280 nm every 10 min at a spacing of 0.001 cm.

B1: Full-length human Pim-1 kinase (residues M1-K313) with N-terminal HexaHis tag and thrombin cleavage site (enzyme)
chain: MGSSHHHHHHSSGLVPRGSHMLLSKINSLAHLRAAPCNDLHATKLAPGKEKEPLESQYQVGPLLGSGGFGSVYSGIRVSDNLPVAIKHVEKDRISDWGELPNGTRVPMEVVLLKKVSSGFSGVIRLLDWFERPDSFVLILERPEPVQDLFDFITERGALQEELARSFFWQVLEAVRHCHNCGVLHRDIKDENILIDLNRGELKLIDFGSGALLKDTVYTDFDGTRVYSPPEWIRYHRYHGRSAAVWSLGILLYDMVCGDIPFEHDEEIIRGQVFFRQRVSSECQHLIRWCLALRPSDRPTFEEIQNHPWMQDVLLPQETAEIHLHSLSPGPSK
modifications: heterogeneous phosphorylation (mixture of species with 0-5 phosphoryl groups): extensively phosphorylated in the HexaHis tag region; Ser261 major site in Pools III and IV; minor sites Ser8, Thr23 and Ser98
notes: Expressed in E. coli and purified by TALON, Superdex 200 and MonoQ; also called Pim-1 protein
In the case of B1, the Kd is reported as 23 µM and the “monomer:dimer ratio (dimer share)” value is reported as 20.
